Measurements from US20090233982.
Where two headings read alike, the source gives them in different places.

How the values were obtained:
[1] = target: Misu (full length, mouse) (Mus musculus) (UniProt Q1HFZ0); settings: 14C-SAM incorporation, 37 C 1 h
[2] = tested on: Dnmt1 (Mus musculus); settings: 14C-SAM incorporation; as efficient as Misu
[3] = target: Misu (full length, mouse) (Mus musculus) (UniProt Q1HFZ0); settings: 14C-SAM incorporation, 37 C 1 h, DNase treated; about two fold without DNase

Misu (full length, mouse) (Mus musculus), sequence (Q1HFZ0 whole entry): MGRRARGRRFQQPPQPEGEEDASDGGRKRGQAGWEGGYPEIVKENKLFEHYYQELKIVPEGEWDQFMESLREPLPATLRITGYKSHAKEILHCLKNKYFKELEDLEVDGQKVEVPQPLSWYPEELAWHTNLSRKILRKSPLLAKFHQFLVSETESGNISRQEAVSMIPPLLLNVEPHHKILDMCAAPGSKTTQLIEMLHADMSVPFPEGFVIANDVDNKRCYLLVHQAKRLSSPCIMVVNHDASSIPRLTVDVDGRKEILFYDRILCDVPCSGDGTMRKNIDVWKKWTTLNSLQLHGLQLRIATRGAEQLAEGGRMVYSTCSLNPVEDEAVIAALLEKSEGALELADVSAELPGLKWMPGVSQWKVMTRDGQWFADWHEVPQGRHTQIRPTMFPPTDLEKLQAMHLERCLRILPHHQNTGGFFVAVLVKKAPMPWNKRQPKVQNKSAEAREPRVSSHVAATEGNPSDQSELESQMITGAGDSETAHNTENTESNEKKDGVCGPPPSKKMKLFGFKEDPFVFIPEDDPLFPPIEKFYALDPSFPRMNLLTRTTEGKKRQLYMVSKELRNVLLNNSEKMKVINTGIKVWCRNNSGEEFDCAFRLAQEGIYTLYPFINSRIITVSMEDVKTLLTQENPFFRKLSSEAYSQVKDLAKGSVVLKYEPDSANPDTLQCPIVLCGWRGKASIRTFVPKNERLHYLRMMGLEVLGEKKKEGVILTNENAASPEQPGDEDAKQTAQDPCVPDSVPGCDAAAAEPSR

Substance | activity (fold over control) ([1]; 5mC on one strand (hemi-methylated), retained after RNase) | activity (fold over control) [2] | activity (fold over control) [1] | activity (fold over control) [3]
hemi-methylated double stranded oligonucleotide | 2 |  |  | 
E. coli rRNA |  | 2 | 2 | 
E. coli tRNA |  | 2 |  | 3
